The text below walks through data of PMC6895265.

Data set [1] deals with TCF4 bHLH domain (Homo sapiens) (UniProt P15884). The experiment in a line: ITC. Conditions: ITC: 20 mM Tris pH 7.5, 150 mM NaCl, 25 C.
For data set [2] the target is unchanged. The experiment in a line: FP. Conditions: 25 C.

Sequence of TCF4 bHLH domain (Homo sapiens) (P15884 565-624): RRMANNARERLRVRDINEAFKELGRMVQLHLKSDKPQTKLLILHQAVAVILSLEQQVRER

With “ACGCACGTGCGT (double strand) [12-mer CG-flanked, X=C]”, in data set [1], the Kd (usually the free concentration of one partner at which half of the binding sites on the other are occupied at equilibrium, for simple one-to-one binding) was determined as 370 nM.

Take “CCGGTCACGTGTCCTA (double strand) [FAM 16-mer E-box C/C]”: in data set [2] (ITC: 20 mM Tris pH 7.5, 150 mM NaCl), the Kd is 110 nM.

For the sequence “CCGGTCACGTGTCCTA (double strand) [FAM 16-mer central CpG 5caC/C]”, the Kd in data set [2] (5caC at strand 1 C8, ITC: 20 mM Tris pH 7.5, 150 mM NaCl) is 140 nM.

In data set [2] (5fC at strand 1 C8, ITC: 20 mM Tris pH 7.5, 150 mM NaCl), “CCGGTCACGTGTCCTA (double strand) [FAM 16-mer central CpG F/C]” showed a Kd of 190 nM.

Sequence “CCGGTCACGTGTCCTA (double strand) [FAM 16-mer central CpG H/C]” had a Kd in data set [2] (5hmC at strand 1 C8, ITC: 20 mM Tris pH 7.5, 150 mM NaCl) of 160 nM.

Regarding “CCGGTCACGTGTCCTA (double strand) [FAM 16-mer central CpG M/C]”, in data set [2] (5mC at strand 1 C8, ITC: 20 mM Tris pH 7.5, 150 mM NaCl), the Kd worked out at 160 nM.
